Assay results from article PMC2613632 (The Journal of Biological Chemistry, 2009).

Target: the molecule itself
Test: native MS

B1: MacB, His-tagged, purified (natural protein, E. coli, UniProt P75831 1-648, looked up)
chain: MTPLLELKDIRRSYPAGDEQVEVLKGISLDIYAGEMVAIVGASGSGKSTLMNILGCLDKATSGTYRVAGQDVATLDADALAQLRREHFGFIFQRYHLLSHLTAEQNVEVPAVYAGLERKQRLLRAQELLQRLGLEDRTEYYPAQLSGGQQQRVSIARALMNGGQVILADEPTGALDSHSGEEVMAILHQLRDRGHTVIIVTHDPQVAAQAERVIEIRDGEIVRNPPAIEKVNVTGGTEPVVNTVSGWRQFVSGFNEALTMAWRALAANKMRTLLTMLGIIIGIASVVSIVVVGDAAKQMVLADIRSIGTNTIDVYPGKDFGDDDPQYQQALKYDDLIAIQKQPWVASATPAVSQNLRLRYNNVDVAASANGVSGDYFNVYGMTFSEGNTFNQEQLNGRAQVVVLDSNTRRQLFPHKADVVGEVILVGNMPARVIGVAEEKQSMFGSSKVLRVWLPYSTMSGRVMGQSWLNSITVRVKEGFDSAEAEQQLTRLLSLRHGKKDFFTWNMDGVLKTVEKTTRTLQLFLTLVAVISLVVGGIGVMNIMLVSVTERTREIGIRMAVGARASDVLQQFLIEAVLVCLVGGALGITLSLLIAFTLQLFLPGWEIGFSPLALLLAFLCSTVTGILFGWLPARNAARLDPVDALARE
  stoichiometry N: 2
